Four molecules from patent US12514920B1, “Respiratory syncytial virus mRNA vaccine, and preparation method therefor and use thereof” (Hangzhou Tianlong Pharmaceutical Co., Ltd., priority 2024, dated 2026) can be followed below.

The test system of data set [1] is RSV pre-F antibody (3C12). The class given is physicochemical. Conditions: ELISA binding to 3C12; for Stress resistance parameter, Osmotic pressure (mM) 3000: high osmotic pressure 3000 mM; for Stress resistance parameter, Osmotic pressure (mM) 3000 / Stress resistance parameter, Osmotic pressure (mM) 10: room temperature; for Stress resistance parameter, Osmotic pressure (mM) 3000 / Stress resistance parameter, Osmotic pressure (mM) 10 / Stress resistance parameter, pH 3.5 / Stress resistance parameter, pH 10: 60 min; for Stress resistance parameter, Temperature (° C.) 50: incubation at 50° C. for 60 min; for Stress resistance parameter, Osmotic pressure (mM) 10: low osmotic pressure 10 mM; for Stress resistance parameter, pH 3.5: pH 3.5, room temperature; for Stress resistance parameter, pH 10: pH 10, room temperature; for Stress resistance parameter, Temperature (° C.) 4: storage at 4° C. for one week. The source says:
To investigate the stability of the RSV F antigen mutants under different pH, temperature, osmotic pressure and other conditions, the mutants were subjected to stress tests under different treatment conditions in this example.
• 293T cells (purchased from ATCC cell bank); • Primary antibody: RSV pre-F antibody (3C12), epitope Φ (purchased from Suzhou Novoprotein Scientific Co., Ltd. (hereinafter referred to as Novoprotein), Cat. No.: DA101); • Standard: RSV pre-F trimer protein (Novoprotein, Cat. No.: DRA230); • Secondary antibody: peroxidase AffiniPure goat anti-human IgG (H+L) (purchased from Yeasen Biotechnology (Shanghai) Co., Ltd. (hereinafter referred to as Yeasen), Cat. No.: N/A); • Experimental group: mRNA vaccines after screening in Example 4;
Coating: A 96-well microplate was coated with a working solution and incubated at 2 to 8° C. for 16 to 20 h.
Plate washing: Phosphate buffered saline PBST was added to each well, and the plate was washed 5 times using a plate washer and patted dry on absorbent paper.
Blocking: After a blocking solution was added, the […] were placed on a constant temperature microplate shaker and incubated at 400 rpm for 1.5 h at 37° C.
Plate washing: PBST was added to each well, and the plate was washed 5 times using a plate washer and patted dry on absorbent paper.
Primary antibody incubation: A primary antibody dilution was added to each well, and the plate was sealed with a sealing film, and then incubated at 400 rpm for 1.5 h at 37° C.
Secondary antibody incubation: A secondary antibody dilution was added to each well, and the plate was sealed with a sealing film, and then incubated at 400 rpm for 45 min at 37° C.
Color development: A chromogenic solution was added, and the plate was sealed with a sealing film, and then placed on a constant temperature microplate shaker and incubated at 400 rpm for 25 min at 37° C.
Reaction stopping: After the color development was completed, a stop buffer was added at […] to the microplate to stop the reaction.
Plate reading: Absorbance values (OD values) were read within 5 min using a multimode microplate reader, with dual wavelengths of 450 nm and 630 nm set.
In this example, stability screening of the mutants through different treatment conditions was defined as a stress test, including storage at 4° C. for one week; incubation at 50° C. for 60 min; treatment at room temperature under low osmotic pressure and high osmotic pressure conditions for 60 min; treatment at room temperature under acid and base conditions for 60 min. The binding of the mutants to the RSV pre-F antibody (3C12) recognizing the epitope Φ was detected by ELISA.
In general terms: An ELISA detects its analyte on a solid surface through an enzyme-linked reagent.

For data set [2], the system named is RSV F antibody (11A9). Put plainly: Binding of epitope II of RSV F antigen mutants by flow cytometry. An excerpt:
(§1) To investigate whether the RSV F antigen mutants have pre-fusion epitopes, an RSV pre-F antibody (3C12) (specifically binding to the RSV pre-F epitope […]) and an RSV F antibody (11A9) (binding to pre-F and post-F epitopes II) were detected by flow cytometry in this example, and RSV F protein mutants in the pre-F conformation were expected to bind to the antibodies tested.
(§2) • 293T cells (purchased from ATCC cell bank); RSV pre-F antibody (3C12), epitope […] (Novoprotein, Cat. No.: DA101); RSV F antibody (11A9), epitope II (Novoprotein, Cat. No.: DA091); • experimental groups: mRNA vaccines corresponding to the expressed antigens in Example 3;
(§3) • (1) Cell transfection: 293T cells were seeded at 1.3×10^5 cells/well in a 24-well plate. The next day, mRNA-LNP samples (containing 300 ng of mRNA) were added directly to the cells, and the mixture was uniformly mixed. • (2) Cell collection: The cells were taken out of the incubator after 16 h of transfection, the medium was pipetted off, 500 μL of 0.1% BSA solution was pipetted to wash the medium remaining in the well plate, taking care not to resuspend the cells, and the 0.1% BSA solution was pipetted off. 500 μL of 0.1% BSA solution was added to each well, and the cells were pipetted and transferred to a 1.5 mL centrifuge tube. • (3) Centrifugation: The cells were harvested by centrifugation at 400 g for 5 min at 4° C. in the dark, and the supernatant was discarded. • (4) Straining: 50.6 μL of RSV fluorescent antibody diluent was added to each of the control sample and the test samples to resuspend the cells, and the samples were incubated at 4° C. for 2 h in the dark. • (5) Cleaning: After the incubation was completed, 500 μL of 0.1% BSA solution was added to each tube, the cells were harvested by centrifugation at 400 g for 5 min at 4° C. in the dark, and the supernatant was discarded. This operation was repeated three times. • (6) Resuspension of cells: 200 μL of 0.1% BSA solution was added to each sample, and the cells were carefully pipetted to prepare a cell suspension. • (7) Detection on flow cytometer: The […] of RSV F mutants to antibodies were measured using flow cytometry, with 1×10^4 cells detected in each measurement.
(§4) The RSV pre-F antibody (3C12) used in this example specifically binds to the RSV pre-F epitope Φ, and the RSV F antibody (11A9) binds to the pre-F and post-F epitopes II. Whether the pre-fusion conformations of the RSV F mutants are stable can be further determined by detecting the binding of the epitope Φ and the epitope II on the mutants to corresponding epitopes of antibodies 3C12 and 11A9, respectively, by flow cytometry.

The test system of data set [3] is RSV pre-F antibody (3C12). Put plainly: Binding of epitope Φ of RSV F antigen mutants by flow cytometry. Particulars: for Φ/II (%): ratio of epitope Φ (3C12) to epitope II (11A9) binding rate.
From the text: as §1, §2, §3, §4

B1: YK-RSV-004 (protein)
chain: QNITEEFYQSTCSAVSKGYLGALRTGWYTSVITIELSNIKENKCNGTDAKVKLIKQELDKYKNAVTDLQLLMQSTPATGSGSAICSGVAVCKVLHLEGEVNKIKSALLSTNKAVVSLSNGVSVLTIKVLDLKNYIDKQLLPIVNKQSCPISNIETVIEFQQKNNRLLEITREFSVNAGVTTPVSTYMLTNSELLSLINDMPITNDQKKLMSNNVQIVRQQSYSIMCIIKEEVLAYVVQLPLYGVIDTPCWKLHTSPLCTTNTKEGSNICLTRTDRGWYCDNAGSVSFFPQAETCKVQSNRVFCDTMNSRTLPSEVNLCNVDIFNPKYDCKIMTSKTDVSSSVITSLGAIVSCYGKTKCTASNKNRGIIKTFSNGCDYVSNKGVDTVSVGNTLYCVNKQEGQSLYVKGEPIINFYDPLVFPSSEFDASISQVNEKINQSLAFIRKSDELLHNVNAGKSTTNIMITTIIIVIIVILLSLIAVGLLLY
Regarding B1, in data set [1], the “Stress resistance parameter, Osmotic pressure (mM) 3000” value turned out to be 0.46 ± 0.13; the “Stress resistance parameter, Temperature (° C.) 50” value stood at 0.48 ± 0.05; the “Stress resistance parameter, Osmotic pressure (mM) 10” value (shortened to “Stress resistance parameter … (mM) 10”) is recorded as 0.91 ± 0.23; the “Stress resistance parameter, pH 3.5” value amounted to 0.97 ± 0.21. In data set [1], the “Stress resistance parameter, pH 10” value came out at 1.00 ± 0.27 and the “Stress resistance parameter, Temperature (° C.) 4” value is given as 0.72 ± 0.06. Further, the “RSV F antibody (11A9) Epitope II (%) binding rate” value (shortened to “RSV F antibody … (%) binding rate”) in data set [2] worked out at 90.1%. The “RSV pre-F antibody (3C12) Epitope Φ (%) binding rate” value in data set [3] (flow cytometry) stood at 82.1%. Also, the “Φ/II (%)” value in data set [3] is on record as 91.1%.

B2: YK-RSV-053 (protein)
chain: QNITEEFYQSTCSAVSKGYLGALRTGWYTSVITIELSNIKENKCNGTDAKVKLIKQELDKYKNAVTDLQLLMQSTPATGSGSAICSGVAVSKVLHLEGEVNKIKSALLSTNKAVVSLSNGVSVLTFKVLDLKNYIDKQLLPILNKQSCSIPNIETVIEFQQKNNRLLEITREFSVNAGVTTPVSTYMLTNSELLSLINDMPITNDQKKLMSNNVQIVRQQSYSIMSIIKEEVLAYVVQLPLCGVIDTPCWKLHTSPLCTTNTKEGSNICLTRTDRGWYCDNAGSVSFFPQAETCKVQSNRVFCDTMNSRTLPSEVNLCNVDIFNPKYDCKIMTSKTDVSSSVITSLGAIVSCYGKTKCTASNKNRGIIKTFSNGCDYVSNKGVDTVSVGNTLYYVNKQEGQSLYVKGEPIINFYDPLVFPSDEFDASISQVNEKINQSLAFIRKSDELLHNVNAGKSTTNIMITTIIIVIIVILLSLIAVGLLLY
For the molecule B2, the “RSV F antibody (11A9) Epitope II (%)” value in data set [2] (binding rate, 293T cells 16 h after mRNA-LNP transfection) was 67.0%. Moreover, the “RSV pre-F antibody (3C12) Epitope Φ (%)” value in data set [3] (binding rate, flow cytometry, 293T cells 16 h after mRNA-LNP transfection) is given as 40.0%. For the same molecule, in data set [3], the “Φ/II (%)” value came to 59.7%.

B3: YK-RSV-013 (protein)
chain: QNITEEFYQSTCSAVSKGYLGALRTGWYTSVITIELSNIKENKCNGTDAKVKLIKQELDKYKNAVTDLQLLMQSTPACGSGSACASGVAVSKVLHLEGEVNKIKSALLSTNKAVVSLSNGVSVLTFKVLDLKNYIDKQLLPIVNKQSCSIPNIETVIEFQQKNNRLLEITREFSVNAGVTTPVSTYMLTNSELLSLINDMPITNDQKKLMSNNVQIVRQQSYSIMSIIKEEVLAYVVQLPLYGVIDTPCWKLHTSPLCTTNTKEGSNICLTRTDRGWYCDNAGSVSFFPQAETCKVQSNRVFCDTMNSRTLPSEVNLCNVDIFNPKYDCKIMTSKTDVSSSVITSLGAIVSCYGKTKCTASNKNRGIIKTFSNGCDYVSNKGVDTVSVGNTLYCVNKQEGQSLYVKGEPIINFYDPLVFPSSEFDASISQVNEKINQSLAFIRKSDELLHNVNAGKSTTNIMITTIIIVIIVILLSLIAVGLLLY
As for B3, in data set [1], the “Stress resistance parameter, Osmotic pressure (mM) 3000” value is 0.43 ± 0.04; the “Stress resistance parameter, Temperature (° C.) 50” value was found to be 0.91 ± 0.23; the “Stress resistance parameter … (mM) 10” value was found to be 0.59 ± 0.08; the “Stress resistance parameter, pH 3.5” value worked out at 0.84 ± 0.19. In addition, in data set [1], the “Stress resistance parameter, pH 10” value is recorded as 0.92 ± 0.04 and the “Stress resistance parameter, Temperature (° C.) 4” value is on record as 0.69 ± 0.11. For the same molecule, the “RSV F antibody … (%) binding rate” value in data set [2] is recorded as 94.3%. Moreover, the “RSV pre-F antibody (3C12) Epitope Φ (%) binding rate” value in data set [3] (flow cytometry) was 89.3%. Besides, the “Φ/II (%)” value in data set [3] came out at 94.7%.

B4: YK-RSV-008 (protein)
chain: QNITEEFYQSTCSAVSKGYLGALRTGWYTCVITIELSNIKENKCNGTDAKVKLIKQELDKYKNAVTDLQLLMQSTPATGSGSAIASGVAVSKVLHLEGEVNKIKSALLSTNKAVVSLSNGVSVCTIKVLDLKNYIDKQLLPIVNKQSCSIPNIETVIEFQQKNNRLLEITREFSVNAGVTTPVSTYMLTNSELLSLINDMPITNDQKKLMSNNVQIVRQQSYSIMSIIKEEVLAYVVQLPLYGVIDTPCWKLHTSPLCTTNTKEGSNICLTRTDRGWYCDNAGSVSFFPQAETCKVQSNRVFCDTMNSRTLPSEVNLCNVDIFNPKYDCKIMTSKTDVSSSVITSLGAIVSCYGKTKCTASNKNRGIIKTFSNGCDYVSNKGVDTVSVGNTLYYVNKQEGQSLYVKGEPIINFYDPLVFPSSEFDASISQVNEKINQSLAFIRKSDELLHNVNAGKSTTNIMITTIIIVIIVILLSLIAVGLLLY
With B4, in data set [1], the “Stress resistance parameter, Osmotic pressure (mM) 3000” value is on record as 0.33 ± 0.02; the “Stress resistance parameter, Temperature (° C.) 50” value is given as 0.45 ± 0.08; the “Stress resistance parameter … (mM) 10” value was found to be 0.81 ± 0.09; the “Stress resistance parameter, pH 3.5” value came to 0.76 ± 0.21. Further, in data set [1], the “Stress resistance parameter, pH 10” value was 0.99 ± 0.19 and the “Stress resistance parameter, Temperature (° C.) 4” value worked out at 0.65 ± 0.06. Also, the “RSV F antibody … (%) binding rate” value in data set [2] is on record as 92.5%. In addition, the “RSV pre-F antibody (3C12) Epitope Φ (%) binding rate” value in data set [3] (flow cytometry) worked out at 83.9%. For the same molecule, the “Φ/II (%)” value in data set [3] was 90.7%.
